In US20240199755A1 (KYMAB, published 2024):

How the values were obtained:
BMP-4 = test: SPR steady state analysis, BMP-4 immobilised, Tfr2-ECD 10-5000 nM as analyte, 1:1 interaction assumed
Description: (§1) The binding analysis was performed at 37° C. at a flow rate of 30 μl/min. Each analyte was diluted in running buffer (HBS-P (pH 7.4), 150 mM NaCl, supplemented with 50 nM FeCl₃). In some experiments, 500 mM NaCl were used to reduce potential non-specific binding. […] Concentration-dependent binding of holo-Tf was performed without intermediate regeneration.
(§2) The kinetic fitting was performed by global fitting using the 1:1 Langmuir binding model (A+B=AB). Steady state analyses were conducted to determine the affinities (Kd). […] Binding and kinetic parameters were evaluated with Biacore™ T200 evaluation software 3.1.

BMP-2 [1] = target: T1, BMP-2; test: SPR binding level normalised to molecular weight, Tfr2-ECD immobilised; reference holo-Tf
T1 construct: The BMP-2 used in the heterotopic ossification model was from Thermo Fisher, and in the co-IP from Peprotech; Species is never stated, so all are treated as one molecule; also called bone morphogenetic protein 2
T1 sequence (P12643 283-396, species assumed, looked up): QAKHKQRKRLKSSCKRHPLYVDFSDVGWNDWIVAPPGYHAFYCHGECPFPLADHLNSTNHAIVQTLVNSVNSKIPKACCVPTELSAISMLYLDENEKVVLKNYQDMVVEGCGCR
Description: All experiments were performed three independent times. FIG. 15a: Quantification of the binding level normalized to the molecular weight. […] FIG. 15b: Binding response of different concentrations of holo-Tf and/or BMP-2. […] (n=4). FIG. 15d: SPR analyses. […] Binding response is relative to BMP-2 alone. […] FIGS. 15b and 15d: One-way ANOVA was used for statistical analysis. […] Two-way ANOVA with Bonferroni post-hoc test was used for statistical analysis. […] All data are presented as mean±SD.

BMP-2 [2] = target: T1, BMP-2; test: SPR steady state analysis, BMP-2 immobilised, Tfr2-ECD 10-5000 nM as analyte, 1:1 interaction assumed
Description: as §1, §2

Sequence of BMP-4 (P12644 293-408): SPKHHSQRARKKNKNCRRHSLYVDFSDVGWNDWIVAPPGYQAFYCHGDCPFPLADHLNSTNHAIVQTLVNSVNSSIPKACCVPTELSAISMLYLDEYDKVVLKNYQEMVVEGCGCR

B1: Tfr2 extracellular domain (Tfr2-ECD), murine, aa 103-798, recombinant His-tagged (receptor, not shown: large carriers)
chain: RGSCQACGDSVLVVDEDVNPEDSGRTTLYWSDLQAMFLRFLGEGRMEDTIRLTSLRERVAGSARMATLVQDILDKLSRQKLDHVWTDTHYVGLQFPDPAHANTLHWVDADGSVQEQLPLEDPEVYCPYSATGNATGKLVYAHYGRSEDLQDLKAKGVELAGSLLLVRVGITSFAQKVAVAQDFGAQGVLIYPDPSDFSQDPHKPGLSSHQAVYGHVHLGTGDPYTPGFPSFNQTQFPPVESSGLPSIPAQPISADIADQLLRKLTGPVAPQEWKGHLSGSPYRLGPGPDLRLVVNNHRVSTPISNIFACIEGFAEPDHYVVIGAQRDAWGPGAAKSAVGTAILLELVRTFSSMVSNGFRPRRSLLFISWDGGDFGSVGATEWLEGYLSVLHLKAVVYVSLDNSVLGDGKFHAKTSPLLVSLIENILKQVDSPNHSGQTLYEQVALTHPSWDAEVIQPLPMDSSAYSFTAFAGVPAVEFSFMEDDRVYPFLHTKEDTYENLHKMLRGRLPAVVQAVAQLAGQLLIRLSHDHLLPLDFGRYGDVVLRHIGNLNEFSGDLKERGLTLQWVYSARGDYIRAAEKLRKEIYSSERNDERLMRMYNVRIMRVEFYFLSQYVSPADSPFRHIFLGQGDHTLGALVDHLRMLRADGSGAASSRLTAGLGFQESRFRRQLALLTWTLQGAANALSGDVWNIDNNF
notes: Expressed in Sf9 insect cells (pOCC211-Tfr2-ECD) and purified on HisTrap; Experiments were repeated with a commercial Tfr2-ECD from Cusabio (aa 103-798); also called His-Tfr2-ECD; His-MBP-c3-Tfr2-ECD
- Kd (BMP-4): 409 nM
- fold binding relative to holo-Tf (BMP-2 [1]): 10 fold
- Kd (BMP-2 [2]): 488 nM
